According to paper PMC4383751:

Biological target: wild-type pyruvate kinase isoform M2 (PKM2^WT) (human) (UniProt P14618)
Assay: SEC; gel filtration on Superdex 200 10/300 GL, in the absence of FBP; low protein concentration (less than 0.2 mg/mL); similar protein concentrations and conditions for all proteins; oxalate added in a further run (Fig. S1F)

Chain of wild-type pyruvate kinase isoform M2 (PKM2^WT), P14618 1-531 (enzyme; other documents disagree on this pair) (P14618 whole entry, canonical isoform): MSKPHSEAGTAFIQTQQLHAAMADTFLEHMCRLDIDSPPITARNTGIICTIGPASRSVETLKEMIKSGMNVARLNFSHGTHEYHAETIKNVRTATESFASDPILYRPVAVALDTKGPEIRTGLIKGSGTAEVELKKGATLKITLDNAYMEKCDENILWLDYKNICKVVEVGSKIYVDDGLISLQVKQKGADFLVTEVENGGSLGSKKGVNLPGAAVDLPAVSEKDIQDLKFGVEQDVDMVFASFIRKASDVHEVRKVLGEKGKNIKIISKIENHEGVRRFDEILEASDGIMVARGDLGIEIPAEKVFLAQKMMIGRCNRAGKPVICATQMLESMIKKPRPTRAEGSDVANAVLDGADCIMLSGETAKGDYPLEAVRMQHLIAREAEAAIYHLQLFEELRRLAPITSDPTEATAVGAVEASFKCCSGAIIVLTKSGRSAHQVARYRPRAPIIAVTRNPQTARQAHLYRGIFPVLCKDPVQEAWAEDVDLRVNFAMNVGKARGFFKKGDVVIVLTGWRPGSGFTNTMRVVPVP

- stoichiometry N: 2
Substance: wild-type pyruvate kinase isoform M2 (PKM2^WT), P14618 1-531 (enzyme; other documents disagree on this pair)
